Several values for one entry are separate records, joined by “and”; a condition that tells them apart may be missing. Equal values may be shown once.
How the values were obtained:
[1] = molecular target: purified recombinant VacA p55 domain (Helicobacter pylori strain 60190); experiment: SEC
[2] = molecular target: recombinant refolded VacA p33 domain (Helicobacter pylori strain 60190); experiment: SEC
[3] = molecular target: p33/p55 complex (86 kDa, monomeric complex) (Helicobacter pylori strain 60190); experiment: negative-stain electron microscopy
[4] = molecular target: the molecule itself; experiment: negative-stain electron microscopy

Molecule “recombinant refolded VacA p33 domain (domain or fragment)” has a stoichiometry N [1] of 1 and a stoichiometry N [2] of 3.

For “p33/p55 complex (86 kDa, monomeric complex)”, the stoichiometry N [3] was 6 and 7 and 12.

B1: p88 VacA purified from H. pylori broth culture supernatant (natural protein)
chain: AFFTTVIIPAIVGGIATGTAVGTVSGLLGWGLKQAEEANKTPDKPDKVWRIQAGKGFNEFPNKEYDLYKSLLSSKIDGGWDWGNAATHYWIKGGQWNKLEVDMKDAVGTYKLSGLRNFTGGDLDVNMQKATLRLGQFNGNSFTSYKDSADRTTRVDFNAKNILIDNFLEINNRVGSGAGRKASSTVLTLQASEGITSSKNAEISLYDGATLNLASNSVKLNGNVWMGRLQYVGAYLAPSYSTINTSKVTGEVNFNHLTVGDHNAAQAGIIASNKTHIGTLDLWQSAGLNIIAPPEGGYKDKPNNTPSQSGAKNDKQESSQNNSNTQVINPPNSTQKTEVQPTQVIDGPFAGGKDTVVNIDRINTKADGTIKVGGFKASLTTNAAHLNIGKGGVNLSNQASGRTLLVENLTGNITVDGPLRVNNQVGGYALAGSSANFEFKAGVDTKNGTATFNNDISLGRFVNLKVDAHTANFKGIDTGNGGFNTLDFSGVTNKVNINKLITASTNVAVKNFNINELIVKTNGVSVGEYTHFSEDIGSQSRINTVRLETGTRSIFSGGVKFKSGEKLVIDEFYYSPWNYFDARNIKNVEITRKFASSTPENPWGTSKLMFNNLTLGQNAVMDYSQFSNLTIQGDFINNQGTINYLVRGGKVATLNVGNAAAMMFNNDIDSATGFYKPLIKINSAQDLIKNTEHVLLKAKIIGYGNVSTGTNGISNVNLEEQFKERLALYNNNNRMDTCVVRNTDDIKACGMAIGNQSMVNNPDNYKYLIGKAWKNIGISKTANGSKISVYYLGNSTPTENGGNTTNLPTNTTNNARFASYA
For B1, the “stoichiometry N” value [4] was 6 and 7 and 12 to 14 (2×).

— PMC2910095 (Biochemistry, 2010)
